Here are results for 4 molecules from patent US20100047253A1.

For assay [1], the target named is IL-13 variant IL-13Q110R (human) (UniProt P35225). Nature of the assay: cell-based or functional assay.
Assay [2] has the same target. The experiment in a line: SPR (Biacore 2000), mAb captured on goat anti-human surface, IL-13 variant (Peprotech) 23.6-0.185 nM, 1:1 model.
In assay [3] the target is human IL-13 (source not stated for the assay) (human) (UniProt P35225). Nature of the assay: cell-based or functional assay.
Sequence of human IL-13 (source not stated for the assay) (human) (P35225 35-146 limits assumed): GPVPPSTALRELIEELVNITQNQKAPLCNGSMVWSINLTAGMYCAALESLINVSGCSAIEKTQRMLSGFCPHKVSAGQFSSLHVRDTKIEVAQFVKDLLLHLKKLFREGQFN

Sequence of IL-13 variant IL-13Q110R (human) (P35225 33-146, stated change not applied): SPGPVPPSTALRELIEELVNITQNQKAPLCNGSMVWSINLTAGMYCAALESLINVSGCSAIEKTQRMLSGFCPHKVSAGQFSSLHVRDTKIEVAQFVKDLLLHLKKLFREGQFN

B1: mAb 623 (antibody, V domains shown)
VH: EVQLVESGGGLVKPGGSLRLSCAASGFTFSNAWMSWVRQAPGKGLEWVGRIRSEIDGGTTNYAAPVKGRFTISRDDSKNTLYLQMNSLKTEDTAVYYCATDQVGAYYGDYYGMDVWGQGTTVTVSS
VL: SYELTQPPSVSVSPGQTARITCSGDALPEKYAYWYQQKSGQAPVLVIYEDSKRPSGIPERFSGSSSGTMATLTISGAQVEDEADYYCHSTDSSGNHGVFGGGTKLTVLG
In assay [1], B1 showed an IC50, eotaxin production by HDFa cells, 300 pM IL-13Q110R of 106 pM and an IC50, eotaxin production by HDFa cells, 600 pM IL-13Q130R of 277 pM. In assay [2], this molecule showed an equilibrium dissociation constant (Kd) of 0.0388 nM, a koff of 0.000218 s⁻¹ and a kon of 5.62e+06 M⁻¹ s⁻¹.

B2: murine IL-13 receptor α2/FC (Fc fusion, mouse, UniProt O88786 22-334, looked up, not shown: a dimerising Fc or GST)
chain: LEIKVNPPQDFEILDPGLLGYLYLQWKPPVVIEKFKGCTLEYELKYRNVDSDSWKTIITRNLIYKDGFDLNKGIEGKIRTHLSEHCTNGSEVQSPWIEASYGISDEGSLETKIQDMKCIYYNWQYLVCSWKPGKTVYSDTNYTMFFWYEGLDHALQCADYLQHDEKNVGCKLSNLDSSDYKDFFICVNGSSKLEPIRSSYTVFQLQNIVKPLPPEFLHISVENSIDIRMKWSTPGGPIPPRCYTYEIVIREDDISWESATDKNDMKLKRRANESEDLCFFVRCKVNIYCADDGIWSEWSEEECWEGYTGPDSK
In assay [3], B2 registered an IC50, IL-13 induced eotaxin release, Average of 0.032 nM; an IC50, IL-13 induced eotaxin release, n = 1 of 0.029 nM; an IC50, IL-13 induced eotaxin release, n = 2 of 0.039 nM; an IC50, IL-13 induced eotaxin release, n = 3 of 0.029 nM.

B3: human IL-13 receptor α2/Fc (Fc fusion, UniProt Q14627 27-343, looked up, not shown: a dimerising Fc or GST)
chain: DTEIKVNPPQDFEIVDPGYLGYLYLQWQPPLSLDHFKECTVEYELKYRNIGSETWKTIITKNLHYKDGFDLNKGIEAKIHTLLPWQCTNGSEVQSSWAETTYWISPQGIPETKVQDMDCVYYNWQYLLCSWKPGIGVLLDTNYNLFYWYEGLDHALQCVDYIKADGQNIGCRFPYLEASDYKDFYICVNGSSENKPIRSSYFTFQLQNIVKPLPPVYLTFTRESSCEIKLKWSIPLGPIPARCFDYEIEIREDDTTLVTATVENETYTLKTTNETRQLCFVVRSKVNIYCSDDGIWSEWSDKQCWEGEDLSKKTLLR
In assay [3], B3 gave an EC50, HDLM-2 proliferation assay (3H-thymidine) of 0.6 nM; an EC50, L-1236 proliferation assay (3H-thymidine) of 0.059 nM; an IC50, IL-13-induced CD23 expression on whole blood B cells (FACS) of 4 nM; an IC50, IL-13 induced eotaxin release, Average of 0.131 nM. In assay [3], this molecule registered an IC50, IL-13 induced eotaxin release, n = 1 of 0.128 nM; an IC50, IL-13 induced eotaxin release, n = 2 of 0.147 nM; an IC50, IL-13 induced eotaxin release, n = 3 of 0.119 nM.

B4: mAb 731 (antibody, V domains shown)
VH: EVQLLESGGGLVQPGGSLRLSCAASGFTFSSYAMSWVRQAPGKGLEWVSAFSGSGGSTYYADSVKGRFTISRDNSKNTLYLQMNSLRAEDTAVYYCVQDGLGPYFYNYGMDVWGQGTTVTVSS
VL: SYELTQPPSVSVSPGQTASITCSGDKLGDKYACWFQQKPGQSPVLVIYHDSKRPSGIPERFSGSNSGDTATLTISGTQAMDEADYYCQAWDSSTYVFGTGTKVTVLG
In assay [1], B4 showed an IC50, eotaxin production by HDFa cells, 300 pM IL-13Q110R of 54 pM and an IC50, eotaxin production by HDFa cells, 600 pM IL-13Q130R of 140 pM. In assay [2], the Kd was 0.0098 nM, the koff turned out to be 5.02e-05 s⁻¹ and the kon is 5.11e+06 M⁻¹ s⁻¹.
